Data: article PMC7717681, “Biochemical and structural characterisation of a protozoan beta-carbonic anhydrase from Trichomonas vaginalis” (Journal of Enzyme Inhibition and Medicinal Chemistry, 2020)

Target: the molecule itself
Experiment: SEC-MALS; SEC combined with static and dynamic light scattering (SEC-SLS/DLS, right-angle light scattering) and a SEC standard curve; Superdex 200 5/150, 50 mM NaH2PO4, 500 mM NaCl, pH 8, 20 °C; after His-tag removal

B1: beta-carbonic anhydrase from Trichomonas vaginalis (TvaCA1) (enzyme)
chain: MSQLELITSANQAFLEANPELTKLNKAPQRHIAIVTCMDTRLVNFAEDAIGVKRGEATVIKAAGNGIWTTGLSDIVVSLLVSIYELGVQEIFIMGHECCGMTHASTDSLGAQMLKSGIKPEDIEKFKSDLSKWVDDFKDPIDNIKNSVRCVRENPLIPKNIPIHGLLIHPDTGKVTTIINGY
notes: TvaCA1, beta-carbonic anhydrase of Trichomonas vaginalis, gene TVAG_005270, UniProt A2ENQ8; Zinc metalloenzyme; The His-tag was removed by thrombin at an LVPRGS site; also called β-CA from T. vaginalis; source: E. coli BL21 Star (DE3), purified (Ni2+-NTA, His-tag removed by thrombin, second Ni2+-NTA; SEC in addition for crystallisation); not shown: His6, N-terminal, cleaved
stoichiometry N: 2
